Measurements as given in patent US11396544 (dated 2022).

How the values were obtained:
[1] = biological target: hCD28.mmH (human); assay: SPR, 25C
[2] = biological target: human CD28 (cell surface) (human, UniProt P10747); assay: FACS, Jurkat
[3] = biological target: T1, human CD22 (cell surface) (human, UniProt P20273); assay: FACS, HEK293/hCD20/hCD22
[4] = biological target: T1, human CD22 (cell surface); assay: FACS, Raji/CD80 and CD86 negative
[5] = biological target: T1, human CD22 (cell surface); assay: FACS, Nalm6

B1: REGN5838 (CD28 arm) (antibody, V domains shown)
VH: QVQLQESGPGLVKPSETLSLTCTVSGGSISSYYWSWIRQPPGKGLEWIGYIYYSGITHYNPSLKSRVTISVDTSKIQFSLKLSSVTAADTAVYYCARWGVRRDYYYYGMDVWGQGTTVTVSS
VL: not shown
- Kd [1]: 404 nM
- EC50 [2]: 23 nM

B2: REGN5837 (CD28 arm) (antibody, V domains shown)
VH: B1 VH
VL: not shown
- EC50 [2]: 21 nM

B3: REGN5838 (CD22 arm) (antibody, V domains shown)
VH: EVQLVESGGGLVQPGGSLKLSCAASGFTFSGSDMHWVRQASGKGLEWVGRIRNQPNSYATAYAASVKGRFTISRDDSKNTAHLQMNSLKTEDTAVYFCTRQKQVVYNYHHYYGMDVWGQGTTVTVSS
VL: not shown
- EC50 [3]: 11.4 nM
- EC50 [4]: 14.9 nM
- EC50 [5]: 18 nM

B4: REGN5837 (CD22 arm) (antibody, V domains shown)
VH: EVQLVQSGAEVKKPGESLKISCKGSGYNFATYWIAWVRQMPGKGLELMGIIYPGDSETTYNPSFQGQVTISADKSISNAYLQWSSLKASDTAMYYCARVGGYCSGTSCHNWFDPWGLGTLVTVSS
VL: not shown
- EC50 [4]: 9.76 nM
- EC50 [5]: 13 nM
